Source: patent US8598081B2, “Specific delivery of agrochemicals” (priority 2010, dated 2013)

Columns and labels:
gum arabic = experiment: VHH binding to gum arabic in ELISA; parameters: species or system acacia tree
Method: Titration of VHH antibody fragments was performed on ELISA plates (Maxisorp, Nunc) coated with 100 μl per well 100 μg/ml gum arabic in 50 mM carbonate pH 9.6. Plates were coated at 4° C. overnight and coating was continued at room temperature for 1 hour on the next day. Plates were washed three times with PBS/0.05%-TWEEN®-20 and blocked with 5% skimmed milk in PBS for 1 hour. Four-fold serial dilutions of purified VHH antibody fragments were prepared in 1% MPBS/0.05%-TWEEN®-20 in polypropylene 96-well plates. Antibody concentrations ranged from 3 μg/ml to 12 ng/ml. Antibody dilutions were transferred to the gum arabic-coated plates and VHH antibody fragments were allowed to bind for 1 hour at room temperature. Bound VHH were detected with sequential incubations with monoclonal mouse anti-histidine antibodies (Abd Serotec) and rabbit anti-mouse IgG whole molecule antibodies conjugated with alkaline phosphatase (RaM/AP) (Sigma) in 1% MPBS/0.05%-TWEEN®-20. Unbound antibodies were removed by washing three times with PBS/0.05%-TWEEN®-20 after each antibody incubation. The plates were washed an additional two times with PBS and 100 μl pNPP disodium hexahydrate substrate (Sigma) was added to each well. The absorbance at 405 nm was measured and plotted as function of antibody concentration (see Table 1).

potato leaf discs = experiment: VHH binding at different temperatures, leaf dip experiment; parameters: species or system potato (variety Desiree); conditions: temperature range from 4° C. to 55° C.; 5 μg/ml in PBS; 1 hour
Method: In order to test applicability of VHH as binders for greenhouse or field applications where binding supposedly may occur at different and sometimes even extreme temperatures, a leaf dip VHH binding experiment at different temperatures was used. Temperatures used were 4° C., room temperature, 37° C., 55° C., or 70° C. ø 8 mm potato leaf discs (variety Desiree) were cut using a puncher tool. The leaf discs were equilibrated to different temperatures by washing three times with PBS at different temperatures. Hexahistidine-tagged VHH were diluted to 5 μg/ml in PBS at different temperatures, added to the corresponding equilibrated leaf discs, and binding of VHH was allowed for 1 hour at different temperatures. After incubation with VHH, leaf discs were washed five times with PBS at room temperature. Bound VHH were detected by incubation with monoclonal mouse anti-histidine antibodies directly conjugated with Alexa-488 fluorescent dye (Abd Serotec) in PBS for 1 hour at room temperature. Unbound anti-histidine antibodies were removed by washing five times with PBS at room temperature. Leaf discs were analyzed for bound VHH with microscopy. […] Please note that leaf discs severely suffer when submerged in PBS at 70° C. for 1 hour but that binding of VHH was still detected.

potato lectin = target: T1, potato lectin (Solanum tuberosum, UniProt Q9S8M0); experiment: VHH binding to potato lectin in ELISA; conditions: Table 2; Blank (no antigen coating); VHH 3 μg/ml
T1 construct: purchased Sigma
T1 sequence (Q9S8M0 whole entry, looked up): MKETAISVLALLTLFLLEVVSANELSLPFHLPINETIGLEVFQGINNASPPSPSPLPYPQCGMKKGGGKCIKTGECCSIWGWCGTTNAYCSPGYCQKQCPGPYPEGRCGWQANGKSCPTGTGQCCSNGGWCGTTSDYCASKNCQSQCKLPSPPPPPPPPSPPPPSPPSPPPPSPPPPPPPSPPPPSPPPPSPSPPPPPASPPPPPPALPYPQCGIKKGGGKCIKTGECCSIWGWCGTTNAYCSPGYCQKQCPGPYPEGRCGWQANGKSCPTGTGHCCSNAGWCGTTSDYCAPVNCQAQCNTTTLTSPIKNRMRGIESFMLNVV
Method: ELISA plates (Maxisorp, Nunc) coated with 100 μl per well 100 μg/ml potato lectin (Sigma) in PBS were coated at 4° C. overnight and coating was continued at room temperature for 1 hour on the next day. Plates were washed three times with PBS/0.05%-TWEEN®-20 and blocked with 5% skimmed milk in PBS for 1 hour. VHH (3 μg/ml) were transferred to the potato lectin-coated plates and VHH antibody fragments were allowed to bind for 1 hour at room temperature. Bound VHH were detected with sequential incubations with monoclonal mouse anti-histidine antibodies (Abd Serotec) and rabbit anti-mouse IgG whole molecule antibodies conjugated with alkaline phosphatase (RaM/AP) (Sigma) in 1% MPBS/0.05%-TWEEN®-20. Unbound antibodies were removed by washing three times with PBS/0.05%-TWEEN®-20 after each antibody incubation. The plates were washed an additional two times with PBS and 100 μl pNPP disodium hexahydrate substrate (Sigma) was added to each well and the absorbance at 405 nm was measured (see Table 2).

B1: VHH 3E6: VHH binding gum arabic, potato lectin and leaf surface; SEQ ID NO:7 by order of the list (protein, listed as Lama glama)
VHH: QVQLQESGGGLVQPGGTLSLSCAASGFNVRWYGMGWFRQAPGKEREGVACISALQETTAYADSVKGRFTLSRDNPKNTLSLQMNNLQPEDTGVYYCATTDCDDSSRMTYTSYLGQGTQVTVSS
modifications: 3E6
absorbance at 405 nm (gum arabic; Table 2, gum arabic coating, VHH 3 μg/ml): 0.882 | absorbance at 405 nm (gum arabic; [VHH] 3 μg/ml (200 nM), gum arabic − (well without gum arabic)): 0.090 | binding to leaf discs at different temperatures (potato leaf discs): detectable binding | absorbance at 405 nm (potato lectin): 0.067
